Legend:
human GIP receptor = biological target: T1, human GIP receptor (human, UniProt P48546 22-466); assay: SPA competition vs [125I]-GIP, hGIPR membranes
T1 construct: whole, on cells; also called hGIPR; human glucose-dependent insulinotropic polypeptide receptor
T1 sequence (looked up): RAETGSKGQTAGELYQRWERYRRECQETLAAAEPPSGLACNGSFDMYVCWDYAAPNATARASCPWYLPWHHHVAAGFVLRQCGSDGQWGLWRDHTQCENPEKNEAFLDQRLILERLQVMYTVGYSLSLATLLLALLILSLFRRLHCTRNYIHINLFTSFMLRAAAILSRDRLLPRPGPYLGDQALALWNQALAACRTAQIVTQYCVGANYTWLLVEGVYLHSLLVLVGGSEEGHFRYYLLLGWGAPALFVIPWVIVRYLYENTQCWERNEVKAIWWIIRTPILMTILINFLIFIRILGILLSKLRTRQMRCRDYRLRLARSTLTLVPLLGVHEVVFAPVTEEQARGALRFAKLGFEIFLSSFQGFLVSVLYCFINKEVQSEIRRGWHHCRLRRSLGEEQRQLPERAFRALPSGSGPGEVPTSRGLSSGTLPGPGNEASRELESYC

human glucagon receptor = biological target: T2, human glucagon receptor (human, UniProt P47871 26-477); assay: SPA competition vs [125I]-Gcg, hGcgR membranes
T2 construct: whole, on cells; also called hGCGR; hGcgR
T2 sequence (P47871 26-477): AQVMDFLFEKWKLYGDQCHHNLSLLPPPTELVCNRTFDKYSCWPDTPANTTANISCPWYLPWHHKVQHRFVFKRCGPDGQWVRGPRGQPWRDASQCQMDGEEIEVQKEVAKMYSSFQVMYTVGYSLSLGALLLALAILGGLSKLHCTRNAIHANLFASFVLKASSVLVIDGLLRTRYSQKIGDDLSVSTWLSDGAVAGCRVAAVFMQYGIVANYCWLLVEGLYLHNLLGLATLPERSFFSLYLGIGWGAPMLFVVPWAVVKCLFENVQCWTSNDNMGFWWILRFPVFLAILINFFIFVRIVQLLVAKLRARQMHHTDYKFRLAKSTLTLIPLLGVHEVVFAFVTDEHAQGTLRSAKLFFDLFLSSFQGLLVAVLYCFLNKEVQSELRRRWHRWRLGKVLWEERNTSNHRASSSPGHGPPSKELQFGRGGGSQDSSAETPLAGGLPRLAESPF
Description: The binding buffer contains 25 mM 4-(2-hydroxyethyl)-1-piperazineethanesulfonic acid (HEPES), pH 7.4, 2.5 mM CaCl₂, 1 mM MgCh, 0.1% (w/v) bacitracin (Research Products), 0.003% (w/v) Polyoxyethylenesorbitan monolaurate (TWEEN®-20), and Roche Complete™ Protease Inhibitors without EDTA. […] Plates are sealed and mixed on a plate shaker (setting 6) for 1 minute and read with a PerkinElmer Trilux MicroBeta® scintillation counter after 12 hours of incubation/settling time at room temperature.
Data are analyzed using four-parameter (curve maximum, curve minimum, IC₅₀, Hill slope) nonlinear regression routines (Genedata Screener, version 12.0.4, Genedata AG, Basal, Switzerland). […] Values for Kᵢ are reported as the geometric mean, with error expressed as the standard error of the mean (SEM) and n is equal to the number of independent replicates (determined in assays performed on different days).

human GLP-1 receptor = biological target: T3, human GLP-1 receptor (human, UniProt P43220 24-463); assay: SPA competition vs [125I]-GLP-1, hGLP-1R membranes
T3 construct: whole, on cells; also called hGLP-1R; human glucagon-like peptide-1 receptor
Method in brief: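 Competition binding in 25 mM HEPES pH 7.4, 2.5 mM CaCl₂, 1 mM MgCl₂, 0.1% bacitracin, 0.003% TWEEN-20, EDTA-free protease inhibitors. IC₅₀ from four-parameter nonlinear fit; Kᵢ given as geometric mean ± SEM, n = independent replicates on different days.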

| Binder | Ki (human GIP receptor) [nM] | Ki (human glucagon receptor) [nM] | Ki (human GLP-1 receptor) [nM] |
| --- | --- | --- | --- |
| YXEGTXTSDXSIXLDXKAQXKFIXXLIEGGPSSGAPPPS (Aib2, αMeF(2F)6, 4Pal10, αMeL13, Orn16, K17(Z1), Aib20, K21(Z1), D-Glu24, αMeY25, C-term NH2; Z1=AEEA2-CO-(CH2)12-CO2H) | 0.0627 | 625 | 0.881 |
| YXEGTXTSDXSIXLDXKAQXEFIXXLIEGGKSSGAPPPS (Aib2, αMeF(2F)6, OMeY10, αMeL13, Orn16, K17(Z1), Aib20, D-Glu24, αMeY25, K31(Z1), C-term NH2; Z1=AEEA2-(γ-Glu)-CO-(CH2)12-CO2H) | 0.208 | 1920 | 1.15 |
| YXEGTXTSDXSIXLDXKAQXEFIXXLIEGGKSSGAPPPS (Aib2, αMeF(2F)6, Ac5c10, αMeL13, Orn16, K17(Z1), Aib20, D-Glu24, αMeY25, K31(Z1), C-term NH2; Z1=AEEA2-(γ-Glu)-CO-(CH2)12-CO2H) | 0.085 | 274 | 1.46 |
| YXEGTXTSDXSIXLDXKAQXEFIXXLIEGGKSSGAPPPS (Aib2, αMeF(2F)6, 2Nal10, αMeL13, Orn16, K17(Z1), Aib20, D-Glu24, αMeY25, K31(Z1), C-term NH2; Z1=AEEA2-(γ-Glu)-CO-(CH2)12-CO2H) | 0.297 | 114 | 4.35 |
| YXEGTXTSDXSIXLDXKAQXEFIXXLIEGGKSSGAPPPS (Aib2, αMeF(2F)6, Nle10, αMeL13, Orn16, K17(Z1), Aib20, D-Glu24, αMeY25, K31(Z1), C-term NH2; Z1=AEEA2-(γ-Glu)-CO-(CH2)12-CO2H) | 0.11 | 737 | 0.872 |
| YXEGTXTSDXSIXLDXKAQXEFIXXLIEGGKSSGAPPPS (Aib2, αMeF(2F)6, 1Nal10, αMeL13, Orn16, K17(Z1), Aib20, D-Glu24, αMeY25, K31(Z1), C-term NH2; Z1=AEEA2-(γ-Glu)-CO-(CH2)12-CO2H) | 0.152 | 137 | 2.85 |
| YXEGTXTSDYXIXLDXKAQXEFIXXLIEGGKSSGAPPPS (Aib2, αMeF(2F)6, αMeS11, αMeL13, Orn16, K17(Z1), Aib20, D-Glu24, αMeY25, K31(Z1), C-term NH2; Z1=AEEA2-(γ-Glu)-CO-(CH2)12-CO2H) | 0.0573 | 196 | 1.21 |
| YXEGTXTSDYXIXLDXKAQXEFIXXLIEGGKSSGAPPPS (Aib2, αMeF(2F)6, Aib11, αMeL13, Orn16, K17(Z1), Aib20, D-Glu24, αMeY25, K31(Z1), C-term NH2; Z1=AEEA2-(γ-Glu)-CO-(CH2)12-CO2H) | 0.0296 | 42 | 0.876 |
| YXEGTXTSDXSIXLDXKAQXEFIXXLIEGGKSSGAPPPS (Aib2, αMeF(2F)6, Bip10, αMeL13, Orn16, K17(Z1), Aib20, D-Glu24, αMeY25, K31(Z1), C-term NH2; Z1=AEEA2-(γ-Glu)-CO-(CH2)12-CO2H) | 0.252 | 299 | 5.17 |
| YXEGTXTSDXSIXLDXKAQXEXIXXLIEGGKSSGAPPPS (Aib2, αMeF(2F)6, 4Pal10, αMeL13, Orn16, K17(Z1), Aib20, 1Nal22, D-Glu24, αMeY25, K31(Z1), C-term NH2; Z1=AEEA2-(γ-Glu)-CO-(CH2)12-CO2H) | 0.263 | 4150 | 1.55 |
| YXEGTXTSDXSIXLDXKAQXEFIXXLIEGGKSSGAPPPS (Aib2, αMeF(2F)6, αMeL10, αMeL13, Orn16, K17(Z1), Aib20, D-Glu24, αMeY25, K31(Z1), C-term NH2; Z1=AEEA2-(γ-Glu)-CO-(CH2)12-CO2H) | 0.0741 | 51.7 | 1.64 |
| YXEGTXTSDXSIXLDXKAQXEXIXXLIEGGKSSGAPPPS (Aib2, αMeF6, 4Pal10, αMeL13, Orn16, K17(Z1), Aib20, αMeF22, D-Glu24, αMeY25, K31(Z1), C-term NH2; Z1=AEEA2-(γ-Glu)-CO-(CH2)12-CO2H) | 0.0761 | 217 | 29 |
| YXEGTXTSDXSIXLDXKAQXEFIXXLIEGGKSSGAPPPS (Aib2, αMeF(2F)6, hTyr10, αMeL13, Orn16, K17(Z1), Aib20, D-Glu24, αMeY25, K31(Z1), C-term NH2; Z1=AEEA2-(γ-Glu)-CO-(CH2)12-CO2H) | 0.171 | 2000 | 0.789 |
| YXEGTXTSDXSIXLDXKAQXEXIXXLIEGGKSSGAPPPS (Aib2, αMeF(2F)6, 4Pal10, αMeL13, Orn16, K17(Z1), Aib20, 3,5FPhe22, D-Glu24, αMeY25, K31(Z1), C-term NH2; Z1=AEEA2-(γ-Glu)-CO-(CH2)12-CO2H) | 0.121 | 4290 | 1.05 |
| YXEGTXTSDXSIXLDXKAQXEFIXXLIEGGKSSGAPPPS (Aib2, αMeF(2F)6, 4Pal10, αMeL13, Orn16, K17(Z1), Aib20, D-Glu24, αMeY25, K31(Z1), C-term NH2; Z1=(γ-Glu)-AEEA-CO-(CH2)12-CO2H) | 0.0759 | 458 | 2.02 |
| YXEGTXTSDXSIXLDXKAQXEFIXXLIEGGKSSGAPPPS (Aib2, αMeF(2F)6, 4Pal10, αMeL13, Orn16, K17(Z1), Aib20, D-Glu24, αMeY25, K31(Z1), C-term NH2; Z1=AEEA2-(γ-Glu)-(4-(4-iodophenyl)butanoyl)) | 0.0629 | 711 | 0.471 |
| YXEGTXTSDKXIXLDXKAQXEFIXXLIEGGPSSGAPPPS (Aib2, αMeF(2F)6, K10(Z1), Aib11, αMeL13, Orn16, K17(Z1), Aib20, D-Glu24, αMeY25, C-term NH2; Z1=AEEA2-(γ-Glu)-CO-(CH2)10-CH3) | 0.0161 | 132 | 0.289 |
| YXEGTXTSDKXIXLDXKAQXEFIXXLIEGGPSSGAPPPS (Aib2, αMeF(2F)6, K10(Z1), Aib11, αMeL13, Orn16, K17(Z1), Aib20, D-Glu24, αMeY25, C-term NH2; Z1=AEEA3-(γ-Glu)-CO-(CH2)10-CH3) | 0.0245 | 345 | 0.198 |

From patent publication US20230265151A1, “GIP/GLP1 CO-AGONIST COMPOUNDS” (priority 2020, published 2023)
